The source of these data is patent US20240150424A1, “DIRECTED CHEMICAL CONJUGATE OF GLUCAGON-LIKE PEPTIDE-2 MUTANT, AND USE THEREOF” (PEG-BIO BIOPHARM CO.,LTD.(CHONGQING), priority 2021, published 2024).

Starred links: 1 amine or outer side, 2 acyl side, 3 side chain; linkers in the order of their positions; H or OH if unused. Non-standard residues stand in square brackets, D forms with d. Residues, ends and D or L forms follow the SMILES beside them. Groups on a side chain read outwards from the residue. No end group written: not given here. *: point of attachment. C18 diacid = O=C(O)CCCCCCCCCCCCCCCCC(=O)*; γGlu = O=C(O)[C@H](CCC(=O)[*:2])N[*:1]; AEEA = NCCOCCOCC(=O)O; Aib = CC(C)(N)C(=O)O

Data set [1] is described as follows: Pharmacokinetic study in rats (ELISA). The class given is in vivo, SD rats. How it is done:
10 adult SD rats weighing 200-300 g were equally divided into 2 groups, 5 rats each group. PF01 and PF04 were administered subcutaneously at a single dose of 3 mg/Kg, respectively. Serum samples of all rats were collected before administration and 8 h, 24 h, 48 h, 72 h and 96 h after administration, and plasma concentrations were determined by ELISA.

A short description of data set [2]: Pharmacokinetic study in Cynomolgus macaques (LC-MS/MS, NCA). The class given is in vivo. How it is done: 4 adult Cynomolgus macaques, half males and half females, were used. PF01 was administered by subcutaneous injection at a single dose of 0.05 mg/Kg. Blood samples were collected before administration and 4 h, 8 h, 12 h, 24 h, 48 h, 72 h, 96 h, 120 h, 192 h and 288 h after administration. The concentrations of PF01 in the samples were determined by LC-MS/MS. The plasma concentration data were analyzed using WinNonlin, a pharmacokinetic data analysis software. […] The t1/2, Cmax, Tmax, AUC, Cl and Vd were calculated using a non-compartmental model (NCA).

For data set [3] the following is noted: cited reference on catabolism in rats; cited from earlier work.
The target of the next data set is T1, GLP-2R (Homo sapiens, UniProt O95838).
T1 construct: expressed in transfected cells; host or cells: HEK-293 cells, transfected and screened by Chongqing Paijin Biotechnology Co. Ltd. The receptor gene was constructed by Shanghai Shengbo Biomedical Technology Co. Ltd
T1 sequence (O95838 1-553): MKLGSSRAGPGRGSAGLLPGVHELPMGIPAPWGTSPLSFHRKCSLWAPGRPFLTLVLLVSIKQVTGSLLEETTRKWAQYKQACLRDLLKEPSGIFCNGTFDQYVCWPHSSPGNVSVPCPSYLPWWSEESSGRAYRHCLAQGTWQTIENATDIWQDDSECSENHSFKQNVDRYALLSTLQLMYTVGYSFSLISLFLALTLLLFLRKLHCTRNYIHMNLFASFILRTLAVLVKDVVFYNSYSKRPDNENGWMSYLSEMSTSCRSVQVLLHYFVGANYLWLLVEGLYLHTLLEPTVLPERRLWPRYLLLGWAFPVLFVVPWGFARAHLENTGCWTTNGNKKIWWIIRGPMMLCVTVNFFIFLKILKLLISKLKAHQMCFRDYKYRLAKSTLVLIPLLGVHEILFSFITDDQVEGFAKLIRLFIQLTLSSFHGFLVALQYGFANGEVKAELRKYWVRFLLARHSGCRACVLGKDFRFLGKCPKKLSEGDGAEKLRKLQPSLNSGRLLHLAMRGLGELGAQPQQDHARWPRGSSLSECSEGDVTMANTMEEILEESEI
Description: In vitro activity (cAMP) assay of glucagon-like peptide-2 mutants in HEK-293-GLP-2R cells. The format is cell-based. The note with it: for in vitro activities compared with natural human glucagon-like peptide-2: summary statement.

For data set [4] the following is noted: cited from earlier work.
[5] abbreviates: cynomolgus monkey, in vivo, Cynomolgus macaques, sc single dose of 0.05 mg/Kg.

Description for GLP-2R: HEK-293-GLP-2R cells (HEK-293 cells were purchased from National Collection of Authenticated Cell Cultures, GLP-2R receptor gene sequence was recombinantly constructed by Shanghai Shengbo Biomedical Technology Co. Ltd., and HEK-293-GLP-2R cells were obtained by transfection and screening by Chongqing Paijin Biotechnology Co. Ltd.) were used to determine the in vitro activities of glucagon-like peptide-2 mutants. […] The cells were incubated at 37° C., 5% CO2 for 15 minutes, and then added with a cell lysis buffer. The cell lysates were extracted, and the OD value of cAMP was determined using a cAMP assay kit (RD company).

Regarding `CC[C@H](C)[C@H](NC(=O)[C@H](Cc1ccccc1)NC(=O)[C@H](CC(=O)O)NC(=O)[C@H](CCCNC(=N)N)NC(=O)[C@H](C)NC(=O)[C@H](C)NC(=O)[C@H](CC(C)C)NC(=O)[C@H](CC(N)=O)NC(=O)[C@H](CC(=O)O)NC(=O)[C@H](CC(C)C)NC(=O)[C@@H](NC(=O)[C@@H](NC(=O)[C@H](CC(N)=O)NC(=O)[C@H](CCSC)NC(=O)[C@H](CCC(=O)O)NC(=O)[C@H](CC(=O)O)NC(=O)[C@H](CO)NC(=O)[C@H](Cc1ccccc1)NC(=O)[C@H](CO)NC(=O)CNC(=O)[C@H](CC(=O)O)NC(=O)CNC(=O)[C@@H](N)Cc1c[nH]cn1)[C@@H](C)O)[C@@H](C)CC)C(=O)N[C@@H](CC(N)=O)C(=O)N[C@@H](Cc1c[nH]c2ccccc12)C(=O)N[C@@H](CC(C)C)C(=O)N[C@H](C(=O)N[C@@H](CCC(N)=O)C(=O)N[C@H](C(=O)N[C@@H](CCCNC(=N)N)C(=O)N[C@H](C(=O)N[C@H](C(=O)N[C@@H](CC(=O)O)C(=O)NCC(=O)NCC(=O)NCC(=O)NCC(=O)N[C@@H](CO)C(=O)N[C@@H](CCCCNC(=O)COCCOCCNC(=O)COCCOCCNC(=O)CC[C@H](NC(=O)CCCCCCCCCCCCCCCCC(=O)O)C(=O)O)C(=O)O)[C@@H](C)O)[C@@H](C)CC)[C@@H](C)O)[C@@H](C)CC` [PF01] (H-HGDGSFSDEMNTILDNLAARDFINWLIQTRITDGGGGSK([AEEA-AEEA-γGlu-C18 diacid])-OH), the Cmax in data set [1] (rat, in vivo, rats, sc single dose of 3 mg/Kg) was 67500 ng/mL; in data set [2] (setting [5]) it was 459 ng/mL. Further, the half-life in data set [1] (rat, in vivo, rats, sc single dose of 3 mg/Kg, read-out: T1/2 (converted)) is 20.3 h; in data set [1] (rat, in vivo, summary statement in description, read-out: in vivo half-life in rats (converted)), 21 h; in data set [2] (cynomolgus monkey, in vivo, Cynomolgus macaques, sc single dose of 0.05 mg/Kg, read-out: T1/2 (average) (converted)) it was 30.9 h; in data set [2] (cynomolgus monkey, in vivo, summary statement in description, read-out: in vivo half-life in cynomolgus monkeys (converted)) it was 30 h. Moreover, the Tmax entry in data set [1] (rats, sc single dose of 3 mg/Kg) is “basically consistent with that of PF04”; in data set [2] (setting [5]), 12 h. For the same compound, the “in vivo half-life, times longer than that of the natural hGLP-2” value in data set [2] (based on T1/2 in Cynomolgus macaques) was “approximately 100 times”. In data set [2] (setting [5]), this compound returned an AUC of 21700 ng·h/mL.

In the case of “GLP-2(3-33): hydrolyzed, inactive GLP-2(3-33) formed by dipeptidyl peptidase IV (DGSFSDEMNTILDNLAARDFINWLIQTKITD; Glucagon-like peptide 2; UniProt P01275 148-178, looked up, fragment)”, the half-life in vivo in data set [3] is 0.45 h.

In the case of “PT01: glucagon-like peptide-2 mutant, SEQ ID NO: 1: HGDGSFSDEMNTILDNLAARDFINWLIQTRITDGGGGSK”, the “in vitro activities compared with natural human glucagon-like peptide-2” value with GLP-2R is reported as “consistent with the natural human glucagon-like peptide-2”.

As for “PT02: glucagon-like peptide-2 mutant, SEQ ID NO: 2: HAibDGSFSDEMNTILDNLAARDFINWLIQTRITDGGGGSK (H[Aib]DGSFSDEMNTILDNLAARDFINWLIQTRITDGGGGSK)”, the “in vitro activities compared with natural human glucagon-like peptide-2” value with GLP-2R is “consistent with the natural human glucagon-like peptide-2”. Besides, the “in vitro cell viability relative to that of Teduglutide” value in the data set with GLP-2R (text summary of Table 3, Teduglutide as a standard) is listed as “comparable to that of Teduglutide”.

On to “PT03: glucagon-like peptide-2 mutant, SEQ ID NO: 3: HGDGSFSDEMNTILDNLAARDFINWLIQTRITDGGGGSGGGGSK”, for which, in the data set with GLP-2R, the “in vitro activities compared with natural human glucagon-like peptide-2” value is recorded as “consistent with the natural human glucagon-like peptide-2”.

“PT04: glucagon-like peptide-2 mutant, SEQ ID NO: 4: HGDGSFSDEMNTILDNLAARDFINWLIQTHITDGGGGSK”: the “in vitro activities compared with natural human glucagon-like peptide-2” value in the data set with GLP-2R is “consistent with the natural human glucagon-like peptide-2”.

With “hGLP-2: human glucagon-like peptide-2, SEQ ID NO: 9: HADGSFSDEMNTILDNLAARDFINWLIQTKITD”, in data set [4], the “half-life in vivo in humans” value is recorded as 7 min.
